According to patent publication US20250262210A1 (TRUSTEES OF COLUMBIA UNIVERSITY IN THE CITY OF NEW YORK, published 2025):

Experiments:
Experiment in all cases: IP/MS, LZTR1 wild type-FLAG, U87
FHOD1 = target: T1, FHOD1 (human, UniProt Q9Y613 2-1164)
T1 sequence (looked up): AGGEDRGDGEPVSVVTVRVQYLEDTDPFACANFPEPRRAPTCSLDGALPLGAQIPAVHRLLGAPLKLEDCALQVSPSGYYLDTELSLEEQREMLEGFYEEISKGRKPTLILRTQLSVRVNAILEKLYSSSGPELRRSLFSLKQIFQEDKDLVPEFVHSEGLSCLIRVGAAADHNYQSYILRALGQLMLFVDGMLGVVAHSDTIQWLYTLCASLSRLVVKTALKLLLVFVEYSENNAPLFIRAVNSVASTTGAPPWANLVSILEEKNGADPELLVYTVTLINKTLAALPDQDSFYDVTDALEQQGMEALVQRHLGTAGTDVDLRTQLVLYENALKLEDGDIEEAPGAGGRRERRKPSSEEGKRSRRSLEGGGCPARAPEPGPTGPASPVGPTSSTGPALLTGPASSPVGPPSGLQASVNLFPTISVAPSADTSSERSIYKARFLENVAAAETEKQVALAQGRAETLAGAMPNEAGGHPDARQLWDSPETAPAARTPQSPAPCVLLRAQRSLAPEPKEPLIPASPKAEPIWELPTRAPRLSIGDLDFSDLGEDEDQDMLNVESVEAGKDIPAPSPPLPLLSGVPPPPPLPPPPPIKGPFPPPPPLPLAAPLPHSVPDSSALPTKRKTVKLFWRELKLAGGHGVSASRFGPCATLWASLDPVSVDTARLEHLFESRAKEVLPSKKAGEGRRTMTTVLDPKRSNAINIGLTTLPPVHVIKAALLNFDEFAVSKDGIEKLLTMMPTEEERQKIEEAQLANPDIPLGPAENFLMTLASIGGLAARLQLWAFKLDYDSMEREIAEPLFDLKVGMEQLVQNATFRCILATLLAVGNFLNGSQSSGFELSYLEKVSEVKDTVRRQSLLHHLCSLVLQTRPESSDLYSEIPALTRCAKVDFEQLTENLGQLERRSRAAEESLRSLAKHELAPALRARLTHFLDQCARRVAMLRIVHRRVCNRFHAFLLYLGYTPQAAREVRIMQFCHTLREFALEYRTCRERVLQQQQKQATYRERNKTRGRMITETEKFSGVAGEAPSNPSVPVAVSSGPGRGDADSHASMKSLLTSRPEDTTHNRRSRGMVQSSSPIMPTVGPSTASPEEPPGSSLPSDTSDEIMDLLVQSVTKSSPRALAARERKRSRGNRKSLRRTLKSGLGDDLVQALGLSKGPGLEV
Procedure, shortened: (§1)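 Read-out: spectral counts from LC-MS/MS (Orbitrap Fusion) after MaxQuant identification. Variable modifications were Met oxidation, protein N-terminal acetylation and N/Q deamidation.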

GTF3C2 = target: T2, GTF3C2 (human, UniProt Q8WUA4 1-911, limits assumed)
T2 sequence (looked up): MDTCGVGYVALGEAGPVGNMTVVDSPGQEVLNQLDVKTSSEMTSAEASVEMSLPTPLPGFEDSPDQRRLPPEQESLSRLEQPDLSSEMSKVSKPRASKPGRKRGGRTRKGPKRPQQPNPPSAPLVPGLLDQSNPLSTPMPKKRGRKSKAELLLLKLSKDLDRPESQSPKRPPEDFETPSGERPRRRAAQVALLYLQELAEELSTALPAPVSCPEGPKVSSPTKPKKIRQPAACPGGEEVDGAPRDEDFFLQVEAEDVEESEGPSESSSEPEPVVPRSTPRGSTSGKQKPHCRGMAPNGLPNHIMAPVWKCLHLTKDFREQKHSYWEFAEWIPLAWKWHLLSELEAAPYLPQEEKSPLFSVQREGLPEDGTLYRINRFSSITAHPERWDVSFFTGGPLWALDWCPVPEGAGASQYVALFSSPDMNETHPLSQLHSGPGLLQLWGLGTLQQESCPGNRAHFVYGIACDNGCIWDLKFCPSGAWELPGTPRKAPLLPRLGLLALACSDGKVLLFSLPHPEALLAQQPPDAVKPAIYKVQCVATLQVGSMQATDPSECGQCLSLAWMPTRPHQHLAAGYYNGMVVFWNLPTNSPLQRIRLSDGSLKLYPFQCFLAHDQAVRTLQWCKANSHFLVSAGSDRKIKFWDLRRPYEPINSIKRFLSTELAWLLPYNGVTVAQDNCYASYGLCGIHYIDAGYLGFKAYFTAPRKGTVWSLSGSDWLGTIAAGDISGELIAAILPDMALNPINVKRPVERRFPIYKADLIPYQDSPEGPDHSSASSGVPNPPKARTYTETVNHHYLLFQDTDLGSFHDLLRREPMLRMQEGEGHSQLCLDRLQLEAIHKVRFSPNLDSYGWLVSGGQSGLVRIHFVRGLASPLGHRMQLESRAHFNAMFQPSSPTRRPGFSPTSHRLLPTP
Procedure, shortened: as §1

KIAA1217 = KIAA1217 (human, UniProt Q5T5P2 1-1943, limits assumed)
Sequence of KIAA1217 (Q5T5P2 whole entry): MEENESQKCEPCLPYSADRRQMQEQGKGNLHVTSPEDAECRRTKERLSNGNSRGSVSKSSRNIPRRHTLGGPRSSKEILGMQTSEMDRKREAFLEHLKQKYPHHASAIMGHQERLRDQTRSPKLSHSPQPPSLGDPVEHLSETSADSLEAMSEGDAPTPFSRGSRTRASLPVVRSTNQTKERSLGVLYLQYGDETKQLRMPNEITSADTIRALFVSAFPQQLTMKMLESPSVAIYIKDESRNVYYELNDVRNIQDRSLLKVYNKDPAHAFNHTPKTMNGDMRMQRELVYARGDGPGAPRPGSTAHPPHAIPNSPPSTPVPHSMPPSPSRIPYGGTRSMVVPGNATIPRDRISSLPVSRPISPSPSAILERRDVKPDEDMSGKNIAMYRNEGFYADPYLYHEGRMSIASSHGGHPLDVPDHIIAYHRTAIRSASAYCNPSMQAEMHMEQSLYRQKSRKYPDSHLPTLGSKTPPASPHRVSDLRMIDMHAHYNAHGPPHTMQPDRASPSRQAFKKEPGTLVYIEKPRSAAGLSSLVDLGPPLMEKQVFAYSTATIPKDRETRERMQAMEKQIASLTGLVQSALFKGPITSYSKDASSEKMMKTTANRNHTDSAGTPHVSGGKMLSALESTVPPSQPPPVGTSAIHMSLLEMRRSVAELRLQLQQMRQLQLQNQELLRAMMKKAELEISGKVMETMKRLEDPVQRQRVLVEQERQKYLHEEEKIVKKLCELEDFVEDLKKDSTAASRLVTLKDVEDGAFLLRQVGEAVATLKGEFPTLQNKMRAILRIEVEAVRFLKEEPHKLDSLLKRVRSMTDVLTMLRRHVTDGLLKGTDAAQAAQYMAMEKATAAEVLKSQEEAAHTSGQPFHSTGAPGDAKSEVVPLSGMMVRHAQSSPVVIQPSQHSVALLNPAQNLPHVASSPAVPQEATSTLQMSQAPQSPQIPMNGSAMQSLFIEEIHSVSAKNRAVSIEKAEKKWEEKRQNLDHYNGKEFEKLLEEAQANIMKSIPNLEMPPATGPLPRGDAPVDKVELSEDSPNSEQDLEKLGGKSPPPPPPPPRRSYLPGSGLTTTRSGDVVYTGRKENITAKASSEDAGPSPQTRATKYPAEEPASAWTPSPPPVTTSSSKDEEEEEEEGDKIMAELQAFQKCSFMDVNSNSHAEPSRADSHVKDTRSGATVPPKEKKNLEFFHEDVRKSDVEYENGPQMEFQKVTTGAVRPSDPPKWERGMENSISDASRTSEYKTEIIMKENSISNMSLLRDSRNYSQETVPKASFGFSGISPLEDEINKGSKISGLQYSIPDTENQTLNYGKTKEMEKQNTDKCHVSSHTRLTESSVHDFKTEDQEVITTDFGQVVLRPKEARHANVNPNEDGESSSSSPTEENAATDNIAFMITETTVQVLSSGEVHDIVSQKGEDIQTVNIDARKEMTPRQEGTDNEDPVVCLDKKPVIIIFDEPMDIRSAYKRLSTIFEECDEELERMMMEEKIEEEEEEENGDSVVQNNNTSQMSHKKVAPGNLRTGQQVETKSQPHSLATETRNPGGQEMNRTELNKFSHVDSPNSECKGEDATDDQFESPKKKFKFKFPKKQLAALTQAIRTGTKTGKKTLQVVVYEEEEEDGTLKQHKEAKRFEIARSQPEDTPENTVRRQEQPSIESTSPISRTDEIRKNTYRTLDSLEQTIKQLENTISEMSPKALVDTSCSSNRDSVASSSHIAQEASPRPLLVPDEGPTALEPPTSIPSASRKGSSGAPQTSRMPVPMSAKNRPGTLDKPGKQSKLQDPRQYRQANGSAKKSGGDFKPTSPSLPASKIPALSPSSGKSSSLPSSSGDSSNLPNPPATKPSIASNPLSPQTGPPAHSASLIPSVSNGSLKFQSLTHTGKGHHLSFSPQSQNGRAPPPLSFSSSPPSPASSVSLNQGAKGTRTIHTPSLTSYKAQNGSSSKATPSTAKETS
Procedure, shortened: as §1

Measured: binding result

B1: LZTR1-FLAG (other, human, UniProt Q8N653 1-840, looked up)
chain: MAGPGSTGGQIGAAALAGGARSKVAPSVDFDHSCSDSVEYLTLNFGPFETVHRWRRLPPCDEFVGARRSKHTVVAYKDAIYVFGGDNGKTMLNDLLRFDVKDCSWCRAFTTGTPPAPRYHHSAVVYGSSMFVFGGYTGDIYSNSNLKNKNDLFEYKFATGQWTEWKIEGRLPVARSAHGATVYSDKLWIFAGYDGNARLNDMWTIGLQDRELTCWEEVAQSGEIPPSCCNFPVAVCRDKMFVFSGQSGAKITNNLFQFEFKDKTWTRIPTEHLLRGSPPPPQRRYGHTMVAFDRHLYVFGGAADNTLPNELHCYDVDFQTWEVVQPSSDSEVGGAEVPERACASEEVPTLTYEERVGFKKSRDVFGLDFGTTSAKQPTQPASELPSGRLFHAAAVISDAMYIFGGTVDNNIRSGEMYRFQFSCYPKCTLHEDYGRLWESRQFCDVEFVLGEKEECVQGHVAIVTARSRWLRRKITQARERLAQKLEQEAAPVPREAPGVAAGGARPPLLHVAIREAEARPFEVLMQFLYTDKIKYPRKGHVEDVLLIMDVYKLALSFQLCRLEQLCRQYIEASVDLQNVLVVCESAARLQLSQLKEHCLNFVVKESHFNQVIMMKEFERLSSPLIVEIVRRKQQPPPRTPLDQPVDIGTSLIQDMKAYLEGAGAEFCDITLLLDGHPRPAHKAILAARSSYFEAMFRSFMPEDGQVNISIGEMVPSRQAFESMLRYIYYGEVNMPPEDSLYLFAAPYYYGFYNNRLQAYCKQNLEMNVTVQNVLQILEAADKTQALDMKRHCLHIIVHQFTKVSKLPTLRSLSQQLLLDIIDSLASHISDKQCAELGADI
notes: Expressed in HEK 293T, HeLa or U87 cells; used as cell lysate; also called LZTR1 wild type-FLAG; LZTR1 WT; not shown: FLAG tag at the C-terminus
binds: FHOD1 | GTF3C2 | KIAA1217
